Source: the supplement of paper PMC9170038

Test system: K4 kissing-loop RNA reporter
Test: apparent KD of K4 kissing-loop reporter; higher = weaker reporter binding
Conditions: Eterna round: R107
Method: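 RNA-MaP round R107: designed RNA switches with theophylline, tryptophan, arginine or FMN aptamers are transcribed on-chip within common flanks. They are titrated with a labelled K4 kissing-loop RNA reporter in RNA-MaP buffer (100 mM Tris pH 7.5, 80 mM KCl, 4 mM MgCl2), without ligand or with the indicated ligand. Median apparent KD per design.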

[1] = input ligand: theophylline 20 uM
[2] = input ligand: tryptophan 2.4 mM
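Also: bound reporter read as fluorescence of individual clusters on recovered sequencing chips by microscopy, with normalized cluster intensities fitted with a binding model.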

Sequence	apparent KD of K4 kissing-loop reporter (input ligand: FMN 200 uM) [nM]	apparent KD of K4 kissing-loop reporter (input ligand: arginine 13.2 mM) [nM]	apparent KD of K4 kissing-loop reporter (input ligand: none) [nM]	apparent KD of K4 kissing-loop reporter [1] [nM]	apparent KD of K4 kissing-loop reporter [2] [nM]
UUUUAAAUGUCUGAUACCAGAGAAAAUUUAUGUAGUGAUGUUAUAUACAAAUUAAAUAAGCUCCCUUGGCAGCAGUAUUAAUUUU [AstrosExc-TheB#9]	583	596	846	623	552
CGUUCCUCUGUCGAUACCAGCUUCAGUUGGCGGCCAGUGAUGUUGGUAUCGCCGAUGCCAAGCCCUUGGCAGCGACAUGAGAACC [Uslaessobi]	200	166	166	105	172
AAUACCUGAGUGAUGUUCAGGGAAUCAGAAGGAGCGUCAAUUAUGACAGGUAGGUCGCUGAAGACAUGUGUGUAUACACAUGUCC [#04 K4 Arginine A Same State]	259	198	234	275	200
UGUACCGAGUCAGGAUAUGCCGUCGAAAGACGAAAGCAGUGAUGUUGCAUCGAUCGAAAGAUCGUUGCAGAAGGGACUUGGUACU [FmnBS 23 #SwitchBubble #StaticStem #DoubleMagnetSystem]	873	164	244	158	297
ACGCGCGCGAGUGAUGUUCGGAGCGGCUGGCAGGAUAUGUAGCAAUGCAGAAGGGUCGUGGCUGCUGGUAGGAAACUACUGGCAG [#2 Exclusion - FMN A Attempt #4 (HarryS)]	252	316	424	358	441
UAUGUACACUGGUAGUGGUACAUCGAGGAAGGAGCGUGCGCAGGCACAGGUAGGUCGCCUCAGCGCACGAGUGAUGUUCGUGGGC [Ceaqu]	308	205	358	262	288
GGCACUUUUGGUAGACACCAUCUACCUCUAUAGGAUAUGCCGAAAGGCAGAAGGAUAGACCUACAGAGUGAUGUUCUGCGUGCCU	686	801	1230	946	849
CAUACGCAUGGAGGAUAUGAGAUUACUCAUAUUACCCUGUAACAGGUAUCUCAGUGAUGUUGAGACUCAGAAGGCCAUGUGUAUG [Ex FMN B 22]	713	354	415	435	387
AGCAGGAGUGAUGUUCCUGUGGCAUAAGUUCGAGGACCGGUACGGCCGCCACUCGUAACAUUAAUCCGUCCUUGAUCAGAUAAGA [theeternabot_sameState_KL_Trp_A_12]	195	186	216	243	101
AGACUACUGAUAGGAUAUAACAUCCUAGUCGUAUACCGAAAGGUAUACGAUUCCCUUCUAGUGAUGUUAGAAGGGUCGGUAGUCA [Omei KL FMN B Exc B v12]	78.5	69.2	71.3	60.9	78.9
UGAUAGGACAGAAGGAGCGGAAGUGAUGUUUCCAAAAGGAGAGGUCGACAAAGUCGACCCUUCCAGGUAGGUCGCUGUCCUAUCU [ArgBX 10 #Palindromic #SwitchBubble #StaticStem]	95.3	83.5	79.1	105	86.7
CUAUGGAAACAUAGUAAUCGGGAAACCGAUACCAGUAUGGAAACAUACCCUUGGCAGCGGAAUGAUUAAACGGAGUGAUGUUCCG [Theophylline A K4 17]	354	243	285	237	261
GCAUCCGAUGCAGGAUAUAGAUGAACGAGUGAUGUUUGGAAUUUAUGUCCAAAGCCUACGAUCAAACUAGAAGGGCAUCGGAUGC	334	266	161	167	192
CUAUAAGUGCCGAGUGAUGUUCGGCCAAUACGAGGACCGGUACGGCCGCCACUCGGUCAGUGAGUGCCCACCGGGCGUGGCUGAC [Leedgeis]	261	225	209	253	124
AUUUUUUUAUCAGGAUAUUAGUGUUGGUUUGUUUUGUUAGUGAUGUUGAUAUUUGUUUUAUGUAUUUAAGAAGGGAUUUAGAUGU [viuupullin]	270	243	270	371	194
GCCAGAGCGCGAAGGAGCGCCGUGACAGGUUACUGCCUUGGGCAGUGAUGUUGCUCAAUCUGGCAGGUAGGUCGCGUGCUCUGGC	179	185	215	202	168

Sequence	apparent KD of K4 kissing-loop reporter (input ligand: FMN 200 uM) [nM]	apparent KD of K4 kissing-loop reporter (input ligand: arginine 13.2 mM) [nM]	apparent KD of K4 kissing-loop reporter (input ligand: none) [nM]	apparent KD of K4 kissing-loop reporter [1] [nM]	apparent KD of K4 kissing-loop reporter [2] [nM]
AGAGAUAUAUGAGGAUAUGAGAUAGUUAAUGAGUGAGUUAUAGUGUUGUUUGGUUAGUGAUGUUAUUUAGAAGGCGUGAGUGAUG [immumullin]	130	94.7	110	119	82.5
UGUACUCUGAAAGGAUAUGUGAGCCCUUUUUGUUAGUGAUGUUGACACGGAAACACCAUCAGACUUACAGAAGGUUCGUUGGGUA [theeternabot_sameState_KL_FMN_B_17]	375	183	241	286	252
GGGAUGUAGGGAAGGAGCGCUUUGCGAAUAUUAAUGAGUGAUGUUCGUAGAUAUUUGUAAUGGCAGGUAGGUCGCCCUAUAUCCC [Skye_SS_AB]	197	131	166	151	157
GCCGUAGAUGGAAGGAGCGUGAUAAGUGAAUUAUCCAGUGAUGUUGGAUCUUAGAUAGGAUCACAGGUAGGUCGCCAUCUACGGC	244	181	217	297	192
AGUGAUGUUGUGUUAUGUUAGUGAAGUGAUCGAGGACCGGUACGGCCGCCACUCGAGUGAUGAGUGAGUGAUGUUUGUUUAGGGA [popmullin]	1100	674	1140	990	486
GCAGUGAUGUUGCACGAGUAGGCUGGAGUACGAGGACCGGUACGGCCGCCACUCGUACGAAAGUCGCUAAUUUAUGGAAUGGUGA [#07 K4 Tryptophan A Same State]	650	623	668	602	467
AGGAUCACGUCAGUGAUGUUGACGAGAGAUACCAGAGACGAAAGUCUCCCUUGGCAGCUCAUCGUGAUCCGUGACAAAGGUCACA [Omei KL hio A SS C v4]	338	203	317	278	297
GUGCGGUGGAGGUUACCGCUACUCUGAGAAGGAGCGCAGAUGACUGCAGGUAGGUCGCUUAGAGCUUGCAGUGAUGUUGCAAGUU [Anquatbiat]	199	147	159	132	177
AGUAGUCGACAAGGAUAUACUAGGAGAGACGUUUGCACAUAACCUGCCCUACGAAGUGAUGUUUCGGUAGAAGGUGUUGGGCUGU [theeternabot_exclusion_KL_FMN_B_34]	96.5	67	87.6	82.9	71.5
AACUCUCAGACAUCUGAGUGAUGUUCAGGCCGAGGACCGGUACGGCCGCCACUCGGGUCUGAGAGAGGUUAUCAAAGAUAGCCAA [Omei KL Tryp A SS A v4]	570	356	468	390	540
UUCUAAAUGUCUGAUACCAGAGAAAAUAUAUGUAGUGAUGUUAUAUACAAAUUUAAUAAGCUCCCUUGGCAGCAGUAUGAAUUUU [AstrosExc-TheB#13]	705	744	949	755	595
CCGGGCGGCCGAAGGAGCGGGCGGACCCGAGUGAUGUUCGGGUGGCCCGUGAGGGCCGGUGCCCAGGUAGGUCGCGGAUCCGCCC [#2 Same State - Arginine B Attempt #3 (HarryS)]	155	120	140	116	135
UAAGAAUAAGUAGCAGUGAUGUUGCUACUGCGAGGACCGGUACGGCCGCCACUCGAGUCCUCGAAGCGUCACUGAACGAGGAAUA [whbob_SS_Tryp_A_m13]	319	283	328	433	187
GGAUAGGAUAGAGGAUAUGGUUUAUGCAAGAAUAACUUAUCGUGUAAAUCCAUAGGGAGUGAUGUUCCAGAAGGCUGUCCUAUCG [MatMod 12 - Jieux - Exclusion - FMN B]	335	201	239	246	173
AUAGCACCUUAUGAUACCAGACGAGUGAUGUUCUGUGGUGUCGUCACAAGGCAAUCGACUGUCCCUUGGCAGCAUCAUUCUAUAU [theeternabot_exclusion_KL_Theo_B_31]	563	531	453	722	730
GCCUUUGUACAGUCCGUUUGUCAUGUGGAUACCAGCAGGAUAGCUUGCCCUUGGCAGCCAUCCAUUUAAUGUAGUGAUGUUACGC [theeternabot_exclusion_KL_Theo_A_13]	398	440	477	412	338
